{"source": "paper doi:10.1101/2020.06.17.153486", "about": "(bioRxiv, 2020)", "target": "SARS-CoV-2 RBD fused with SD1 (SARS-CoV-2, Wuhan-Hu-1 type, UniProt P0DTC2)", "assay": "ELISA"}
{"binder": "mAb 2-4 (antibody, V domains shown) VH: QVQLVQSGAEVKKPGASVKVSCKASGYTFTGYYMHWVRQAPGQGLEWMGWINPNSGGTNYTQMFQGRVTMTRDTSISTAYMEVSRLRSDDTAVYYCARDRSWAVVYYYMDVWGKGTTVTVSS VL: QSALTQPPSASGSPGQSVTISCTGTSSDVGGYNYVSWYQQHPGKAPKLMIYEVSKRPSGVPDRFSGSKSGNTASLTVSGLQAEDEADYYCSSYAGSNNLVFGGGTKLTVL", "values": [{"measurement": "binding result", "value": "binds"}]}
